Data taken from PMC12576823.

Molecular target: biotinylated cLDLR-TEV-Fc antigen (cleaved form of the low-density lipoprotein receptor) (UniProt P01130)
Assay: BLI; Octet RED384, room temperature; 20 nM biotinylated antigen-Fc immobilised on SA biosensor; monomeric Fab as analyte in PBS, 0.05% Tween-20, 0.2% BSA; 2:1 heterogeneous ligand model, global fit

UniProt P01130, sequence (P01130 22-788): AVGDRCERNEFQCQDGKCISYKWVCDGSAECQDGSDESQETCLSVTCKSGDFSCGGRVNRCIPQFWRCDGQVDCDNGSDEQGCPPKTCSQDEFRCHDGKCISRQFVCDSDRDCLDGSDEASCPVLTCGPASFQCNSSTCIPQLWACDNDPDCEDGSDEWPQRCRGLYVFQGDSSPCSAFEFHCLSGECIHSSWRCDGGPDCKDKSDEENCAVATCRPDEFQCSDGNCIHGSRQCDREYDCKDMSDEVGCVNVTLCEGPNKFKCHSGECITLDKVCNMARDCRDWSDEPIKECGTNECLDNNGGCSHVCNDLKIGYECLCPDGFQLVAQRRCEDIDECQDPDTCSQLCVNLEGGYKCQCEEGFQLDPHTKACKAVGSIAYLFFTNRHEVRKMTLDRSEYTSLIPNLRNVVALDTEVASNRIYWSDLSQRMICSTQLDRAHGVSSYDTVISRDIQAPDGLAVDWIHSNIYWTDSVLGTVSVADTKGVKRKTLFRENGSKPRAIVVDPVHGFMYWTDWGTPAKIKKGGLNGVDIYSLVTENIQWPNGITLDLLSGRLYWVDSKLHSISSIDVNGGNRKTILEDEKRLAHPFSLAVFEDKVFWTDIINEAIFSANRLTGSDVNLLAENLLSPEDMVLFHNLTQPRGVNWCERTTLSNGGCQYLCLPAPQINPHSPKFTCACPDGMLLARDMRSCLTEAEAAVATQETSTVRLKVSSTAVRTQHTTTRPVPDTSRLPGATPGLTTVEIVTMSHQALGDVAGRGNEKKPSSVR

B1: 142F1 Fab (anti-LDLR) (Fab, V domains shown)
VH: EVQLVESGGGLVQPGGSLRLSCAASGFNVYSSSIHWVRQAPGKGLEWVASISSYYGSTYYADSVKGRFTISADTSKNTAYLQMNSLRAEDTAVYYCARWYGYGYYHPYYFGRSYGFDYWGQGTLVTVSS
VL: DIQMTQSPSSLSASVGDRVTITCRASQSVSSAVAWYQQKPGKAPKLLIYSASSLYSGVPSRFSGSRSGTDFTLTISSLQPEDFATYYCQQEWQSLFTFGQGTKVEIK
Kd: 5.8 nM

B2: 142F6 Fab (anti-LDLR) (Fab, V domains shown)
VH: EVQLVESGGGLVQPGGSLRLSCAASGFNFSSSSIHWVRQAPGKGLEWVASIYSSSGYTYYADSVKGRFTISADTSKNTAYLQMNSLRAEDTAVYYCARKWYYGAMDYWGQGTLVTVSS
VL: DIQMTQSPSSLSASVGDRVTITCRASQSVSSAVAWYQQKPGKAPKLLIYSASSLYSGVPSRFSGSRSGTDFTLTISSLQPEDFATYYCQQSSTIWTPLTFGQGTKVEIK
Kd: 16 nM
